Measured values taken from patent US6114143, “Anti-HIV monoclonal antibody” (Juridical Foundation The Chemo-Sero-Therapeutic Research …, dated 2000).

T1: decapeptide IHIGPGRAFY derived from HIV-MN (HIV strain MN)
T1 peptide: IHIGPGRAFY

T2: hexapeptide Ile-Gly-Pro-Gly-Arg-Ala (HIV strain MN)
T2 peptide: IGPGRA

T3: hexapeptide Gly-Pro-Gly-Arg-Ala-Phe (HIV strain MN)
T3 peptide: GPGRAF

T4: synthetic PND peptide SP-1 (HIV strain MN) (HIV strain MN)
T4 peptide: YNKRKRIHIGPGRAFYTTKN

B1: monoclonal antibody C25 (antibody, V domains shown)
VH: QVQLQQSGAELVRPGTSVKMFCKAAGYTFTNSWIGWFRQRPGHGLEWIGDIYPGGGYTNYNEIFKGKATLTADTSSSTAYMQLSSLTSEDSAIYYCSRGIPGYAMDYWGQGTSVTVSS
VL: DIVMTQSPSSLTVTAGEKVTMSCKSSQSLLNSGDQKNYLTWYQQKPGQPPKLLIYWASTGESGVPDRFTGSGSETDFTLTISSVQAEDLAVYYCQNDYSYPWTFGGGTKLEIK
B2: chimeric C25 antibody (CC25) (antibody, V domains shown)
VH: B1 VH
VL: B1 VL
B3: humanized C25 antibody (RC25) (antibody, V domains shown)
VH: QVQLVQSGAEVKKPGASVKVSCKASGYTFTNSWIGWFRQAPGQGLEWIGDIYPGGGYTNYNEIFKGKATMTADTSTNTAYMELSSLRSEDTAVYYCSRGIPGYAMDYWGQGTLVTVSS
VL: DIQMTQSPSSLSASVGDRVTMSCKSSQSLLNSGDQKNYLTWYQQKPGKAPKLLIYWASTGESGVPSRFSGSGSGTDFTFTISSLQPEDIATYYCQNDYSYPWTFGQGTKVEIK

What was measured:
[1] = biological target: T1, decapeptide IHIGPGRAFY derived from …; assay: EIA, peptide synthesized on a polyethylene rod (FIG. 6)
[2] = biological target: decapeptide […] derived from NI53 (HIV strain NI53); assay: as above
[3] = biological target: gp120 of HIV-MN strain (HIV strain MN, UniProt P05877); assay: cell-based or functional assay
[4] = biological target: T2, hexapeptide Ile-Gly-Pro-Gly-Arg-Ala; assay: EIA with overlapped peptides on a solid phase (FIG. 7)
[5] = biological target: T3, hexapeptide Gly-Pro-Gly-Arg-Ala-Phe; assay: as above
[6] = biological target: synthetic PND peptide SP-6 (HIV strain NI16-1) (HIV strain NI16-1); assay: EIA, peptide immobilized on plate (FIG. 4)
[7] = biological target: synthetic peptide SP-30 (5 repeats of GPGR); assay: EIA, peptide immobilized on plate (FIG. 4)
[8] = biological target: synthetic PND peptide SP-11 (HIV strain NI54-2) (HIV strain NI54-2); assay: EIA, peptide immobilized on plate (FIG. 4)
[9] = biological target: synthetic PND peptide SP-20 (HIV strain NI63-2) (HIV strain NI63-2); assay: EIA, peptide immobilized on plate (FIG. 4)
[10] = biological target: synthetic PND peptide SP-9 (HIV strain NI23) (HIV strain NI23); assay: EIA, peptide immobilized on plate (FIG. 4)
[11] = biological target: synthetic PND peptide SP-12 (HIV strain NI53) (HIV strain NI53); assay: EIA, peptide immobilized on plate (FIG. 4)
[12] = biological target: T4, synthetic PND peptide SP-1 (HIV strain …); assay: EIA, peptide immobilized on plate (FIG. 4)

Binder	binding result [1]	binding result [2]	minimum effective concentration inhibiting viral infection by 100% [3] [µg/mL]	binding result [4]	binding result [5]	binding result [6]	binding result [7]	binding result [8]	binding result [9]	binding result [10]	binding result [11]	binding result [12]
B1	binds	binds	1	binds	binds	binds	binds	binds	binds	binds	binds	binds
B2			1									
B3			1									
